Laboratory results reported in patent publication US20030144495, “Drosophila recombination-associated protein and methods for use” (Albert Einstein College of Medicine of Yeshiva University, published 2003).

Molecular target: RecA (Escherichia coli, UniProt P0A7G6 P0A7G6:2-353)
Assay: EMSA; gel shift in presence of ATP-gamma-S, 20 mM Tris pH 7.35, 10 mM MgCl2, 37 C
Settings: tags: commercial, Promega/Pharmacia/USB; label: 5'-32P
Description: Any oligonucleotide may be used for this assay. For this experiment, an oligonucleotide (33-mer) derived from the central portion of the pUC19 poly linker 5′-[…]-3′ [SEQ ID NO: 20] was endlabeled at the 5′ end with ³²P-ATP using T4 polynucleotide kinase. The oligonucleotide was purified on Qiaquick columns using buffer PN (Qiagen) and the OD at 260 nm indicated a concentration of 5 ng/μl. Any oligonucleotide sequence may be used in this experiment. The SEQ ID NO: 16 oligonucleotide was incubated with 60 ng of DRAP or RecA in various buffers for 30 minutes at 37° C. A loading buffer was added and the material separated on a 6% 1×TAE, polyacrylamide minigel at 250 V for 14 minutes. The gel was dried and exposed to film with one intensifying screen for ˜16 hrs. at −80° C. No degradation of the oligonucleotide was observed. (FIG. 8.) Gel shifting with RecA in the presence of […] is consistent with the known properties of that protein.

Sequence of RecA (P0A7G6 2-353, one chain of several): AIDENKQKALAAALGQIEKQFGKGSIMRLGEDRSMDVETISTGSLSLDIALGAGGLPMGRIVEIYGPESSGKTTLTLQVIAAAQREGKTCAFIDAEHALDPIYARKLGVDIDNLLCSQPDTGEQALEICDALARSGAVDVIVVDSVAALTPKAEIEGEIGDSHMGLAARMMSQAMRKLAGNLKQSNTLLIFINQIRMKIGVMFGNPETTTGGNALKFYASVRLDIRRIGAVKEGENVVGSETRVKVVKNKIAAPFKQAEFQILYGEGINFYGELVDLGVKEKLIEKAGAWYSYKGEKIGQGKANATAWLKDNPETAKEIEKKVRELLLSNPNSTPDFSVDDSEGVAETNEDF

## GGTACCCGGGGATCCTCTAGAGTCGACCTGCAG (ssDNA) [pUC19 polylinker 33-mer]
  binding result: binds
